Reference: patent US20150299252A1
Where no end group is shown, it is not given here.

Molecular target: T1, Fc-chimeric NKG2D, P26718
T1 chain: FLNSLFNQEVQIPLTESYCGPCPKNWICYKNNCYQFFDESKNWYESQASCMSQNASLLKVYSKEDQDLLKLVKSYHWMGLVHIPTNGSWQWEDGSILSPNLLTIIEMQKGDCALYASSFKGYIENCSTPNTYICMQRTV

B1: biotinylated SVH1C (quadravalent, C-terminal ε-biotinyl-lysine amide) (peptide)
peptide: NPSHPLSGGGGS
chain: KKKK
modifications: not fully specified (some residues, C-terminus); also: quadravalent: four peptide copies on lysine scaffold
**Q.** B1 was tested. Which Kd did it give?
**A.** 1 µM
